According to patent US20030091568A1, “Inhibitors for the formation of soluble human CD23” (priority 2000, published 2003):
Blank lines part the entries; values can stand above or below the molecule they belong to.

Experiments:
ADAM9 = target: T1, ADAM9 (Mus musculus, UniProt Q61072); experiment: CD23 shedding in CHO AA8 clone 3 cells with tet-regulated ADAM9 "On" (s-CD23 ELISA); format: cell-based, murine; settings: CHO AA8 clone 3, absence of tetracycline (ADAM9 "On"), 16 hours; 2 μM batimastat or 20 nM-1 μM TIMP; FIG. 3A
T1 construct: expressed in transfected cells; host or cells: CHO AA8 Tet-Off cells (Clontech), clone 3, co-expressing human CD23b
T1 sequence (Q61072 206-845 limits assumed): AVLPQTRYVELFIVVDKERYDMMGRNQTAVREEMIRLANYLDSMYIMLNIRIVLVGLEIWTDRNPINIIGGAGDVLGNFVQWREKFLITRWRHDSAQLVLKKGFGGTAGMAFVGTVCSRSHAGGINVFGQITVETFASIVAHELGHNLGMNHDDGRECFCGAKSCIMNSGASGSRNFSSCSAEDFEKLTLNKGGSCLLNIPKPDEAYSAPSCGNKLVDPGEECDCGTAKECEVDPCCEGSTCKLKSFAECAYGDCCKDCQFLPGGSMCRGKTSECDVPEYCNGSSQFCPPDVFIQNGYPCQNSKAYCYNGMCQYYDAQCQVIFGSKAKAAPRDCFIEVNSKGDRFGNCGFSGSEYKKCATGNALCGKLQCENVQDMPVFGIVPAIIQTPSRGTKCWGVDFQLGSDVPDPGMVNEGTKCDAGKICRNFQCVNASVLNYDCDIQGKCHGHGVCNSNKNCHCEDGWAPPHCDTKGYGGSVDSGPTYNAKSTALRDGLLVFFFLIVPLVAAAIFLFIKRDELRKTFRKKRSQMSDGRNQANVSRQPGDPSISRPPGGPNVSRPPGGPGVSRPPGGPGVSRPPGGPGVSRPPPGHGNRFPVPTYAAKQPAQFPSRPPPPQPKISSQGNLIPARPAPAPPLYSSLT
Protocol: CHO AA8 cells (Clontech), which constitutively express human CD23b and a tet regulatable ADAM9 (clone 3, described above), were cultured in the absence of tetracycline (ADAM9 expression “On”) as well as the presence or absence of the metalloproteinase inhibitor batimastat (BB-94, British Biotechnology) as a broad spectrum MMP inhibitor, as well as various concentrations of either TIMP-1, TIMP-2 or TIMP-3. After 16 hours, aliquots of the respective culture supernatants were analysed by ELISA for the formation of s-CD23 (The Binding Site).
[…] cells were cultured in the presence (ADAM9 expression “Off”) or absence (ADAM9 expression “On”) of tetracylin (Tc). Under both conditions, the influence of batimastat (BB-94) on CD23 shedding was analyzed. The concentration of s-CD23 in the culture supernatants was determined by ELISA. In parallel, the produced s-CD23 cleavage products were analyzed by Western blot analyses (FIG. 4). Untransfected CHO AA8 cells (WT) were used as a negative control in the ELISA assays. In the absence of Tc (ADAM9 expression “On”), about 2-3 times the amount of s-CD23 was produced compared to cells kept in the presence of Tc (ADAM9 expression “Off”). […] The 33 kDa form of s-CD23 and, in minor amounts, the 25 kDa cleavage fragment were detected by Western blot analyses. […]

ADAM10 = target: T2, ADAM10 (Homo sapiens, UniProt O14672); settings: stated as known; cited from earlier work
T2 sequence (O14672 214-748): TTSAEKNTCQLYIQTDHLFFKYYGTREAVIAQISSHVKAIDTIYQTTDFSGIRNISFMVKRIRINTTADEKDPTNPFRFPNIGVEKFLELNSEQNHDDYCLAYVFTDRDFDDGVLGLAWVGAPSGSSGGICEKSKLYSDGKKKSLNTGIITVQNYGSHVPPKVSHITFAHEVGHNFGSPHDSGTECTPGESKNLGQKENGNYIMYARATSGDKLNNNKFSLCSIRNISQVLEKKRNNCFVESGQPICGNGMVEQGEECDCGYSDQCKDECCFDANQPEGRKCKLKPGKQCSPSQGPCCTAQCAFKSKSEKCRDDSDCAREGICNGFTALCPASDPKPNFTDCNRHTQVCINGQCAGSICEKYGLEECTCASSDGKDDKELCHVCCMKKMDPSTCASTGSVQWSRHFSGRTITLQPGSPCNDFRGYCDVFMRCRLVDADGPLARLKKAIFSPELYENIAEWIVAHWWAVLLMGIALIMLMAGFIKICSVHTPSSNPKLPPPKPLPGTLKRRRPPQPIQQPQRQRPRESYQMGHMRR

ADAM17 (TACE) = ADAM17 (TACE) (Homo sapiens, UniProt P78536); settings: stated as known; cited from earlier work
Chain of ADAM17 (TACE) (P78536 215-824, species assumed): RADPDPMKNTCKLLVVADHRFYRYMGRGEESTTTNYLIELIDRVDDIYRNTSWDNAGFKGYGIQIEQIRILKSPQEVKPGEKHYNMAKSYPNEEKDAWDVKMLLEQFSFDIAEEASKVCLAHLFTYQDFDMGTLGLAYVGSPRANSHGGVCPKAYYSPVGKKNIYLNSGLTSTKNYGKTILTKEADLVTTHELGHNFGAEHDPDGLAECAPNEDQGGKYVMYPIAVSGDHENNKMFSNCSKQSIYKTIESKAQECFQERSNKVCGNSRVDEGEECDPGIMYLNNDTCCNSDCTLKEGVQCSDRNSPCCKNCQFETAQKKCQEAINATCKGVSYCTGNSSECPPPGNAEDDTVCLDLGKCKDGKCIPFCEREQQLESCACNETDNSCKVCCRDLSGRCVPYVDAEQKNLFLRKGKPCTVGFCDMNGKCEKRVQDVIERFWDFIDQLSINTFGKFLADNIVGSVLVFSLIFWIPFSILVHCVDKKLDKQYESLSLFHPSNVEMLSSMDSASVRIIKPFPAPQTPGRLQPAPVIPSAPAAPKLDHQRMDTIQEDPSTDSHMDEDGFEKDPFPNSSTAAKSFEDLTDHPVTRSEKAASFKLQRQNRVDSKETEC

block of proteolytic release of CD23 from the membrane (formation of s-CD23 by ELISA) (ADAM9): could not be inhibited
Molecule: TIMP-1: tissue inhibitor of metalloproteinases 1
inhibition of ADAM10 (ADAM10): inhibited

block of proteolytic release of CD23 from the membrane (formation of s-CD23 by ELISA) (ADAM9): could not be inhibited
B1: TIMP-3: tissue inhibitor of metalloproteinases 3 (protein, UniProt P35625 24-211, looked up)
Metalloproteinase inhibitor 3: CTCSPSHPQDAFCNSDIVIRAKVVGKKLVKEGPFGTLVYTIKQMKMYRGFTKMPHVQYIHTEASESLCGLKLEVNKYQYLLTGRVYDGKMYTGLCNFVERWDQLTLSQRKGLNYRYHLGCNCKIKSCYYLPCFVTSKNECLWTDMLSNFGYPGYQSKHYACIRQKGGYCSWYRGWAPPDKSIINATDP
inhibition of ADAM10 (ADAM10): inhibited
inhibition of ADAM17 (TACE) (ADAM17 (TACE)): inhibited
